Measurements reported in article PMC13168374, “Reversible DNA condensation drives natural transformation”.
Values belong to the molecule of their own block, whether it stands above or below them.

How the values were obtained:
[1] = biological target: T1, ComEA deltaL internal_change (Geobacillus stearothermophilus) (UniProt A0A0K9HI54); assay: optical tweezers overstretching; details: FP: 20 mM Tris-HCl pH 7.5, 200 mM KCl, 80 nM DNA, ~20 C (spin at 20 C; read temperature not stated); optical tweezers 23 +/- 1 C, buffer not given in material
T1 sequence: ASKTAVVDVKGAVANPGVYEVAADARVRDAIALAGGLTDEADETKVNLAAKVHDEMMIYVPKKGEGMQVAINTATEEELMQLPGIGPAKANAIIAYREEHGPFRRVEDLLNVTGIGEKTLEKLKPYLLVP

[2] = biological target: ComEA LL ins19aa;after;143 (Geobacillus stearothermophilus) (UniProt A0A0K9HI54); assay: optical tweezers overstretching; details: FP: 20 mM Tris-HCl pH 7.5, 200 mM KCl, 80 nM DNA, ~20 C (spin at 20 C; read temperature not stated); optical tweezers 23 +/- 1 C, buffer not given in material
[3] = biological target: T2, ComEA (soluble truncation) (Geobacillus stearothermophilus, UniProt A0A0K9HI54 60-207); assay: optical tweezers overstretching; details: EC50 of overstretch force increase; Ymax 28.6 pN; 23 C; FP: 20 mM Tris-HCl pH 7.5, 200 mM KCl, 80 nM DNA, ~20 C (spin at 20 C; read temperature not stated); optical tweezers 23 +/- 1 C, buffer not given in material
T2 sequence: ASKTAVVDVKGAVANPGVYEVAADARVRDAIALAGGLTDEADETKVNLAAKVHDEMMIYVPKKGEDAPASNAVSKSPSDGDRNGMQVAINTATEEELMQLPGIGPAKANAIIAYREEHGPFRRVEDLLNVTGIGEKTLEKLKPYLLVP

[4] = biological target: T3, ComEA A108Y A108Y (Geobacillus stearothermophilus) (UniProt A0A0K9HI54); assay: optical tweezers overstretching; details: EC50 of overstretch force increase; Ymax 12.7 pN; 23 C; FP: 20 mM Tris-HCl pH 7.5, 200 mM KCl, 80 nM DNA, ~20 C (spin at 20 C; read temperature not stated); optical tweezers 23 +/- 1 C, buffer not given in material
T3 sequence: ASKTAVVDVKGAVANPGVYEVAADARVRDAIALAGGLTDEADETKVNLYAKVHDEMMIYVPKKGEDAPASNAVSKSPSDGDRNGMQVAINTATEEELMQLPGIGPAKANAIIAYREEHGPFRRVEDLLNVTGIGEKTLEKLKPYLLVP

[5] = biological target: ComEA from Geobacillus stearothermophilus, soluble truncation lacking the N-terminal sequence (amino acids 60-207) (Geobacillus stearothermophilus)
[6] = biological target: ComEA from Geobacillus stearothermophilus, soluble truncation lacking the N-terminal sequence (amino acids 60-207) (Geobacillus stearothermophilus); remark: listed apart in the source
[7] = biological target: ComEA from Geobacillus stearothermophilus, soluble truncation lacking the N-terminal sequence (amino acids 60-207) (Geobacillus stearothermophilus); remark: listed apart in the source
[8] = biological target: T2, ComEA (soluble truncation); assay: fluorescence polarization; Hill coefficient 1.56 +/- 0.28; FP: 20 mM Tris-HCl pH 7.5, 200 mM KCl, 80 nM DNA, ~20 C (spin at 20 C; read temperature not stated); optical tweezers 23 +/- 1 C, buffer not given in material; details: protein: recombinant; label: 3'-fluorescein (36-FAM) on strand 1; blunt
ComEA A108Y = biological target: T4, ComEA A108Y (Geobacillus stearothermophilus, UniProt A0A0K9HI54 60-207, A108Y); assay: fluorescence polarization; Hill coefficient 0.96 +/- 0.16; FP: 20 mM Tris-HCl pH 7.5, 200 mM KCl, 80 nM DNA, ~20 C (spin at 20 C; read temperature not stated); optical tweezers 23 +/- 1 C, buffer not given in material; details: protein: recombinant; label: 3'-fluorescein (36-FAM) on strand 1; blunt
T4 sequence: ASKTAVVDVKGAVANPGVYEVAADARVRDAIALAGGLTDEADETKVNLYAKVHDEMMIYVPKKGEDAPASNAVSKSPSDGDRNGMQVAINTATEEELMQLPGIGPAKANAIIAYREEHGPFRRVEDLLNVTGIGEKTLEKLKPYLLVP

ComEA deltaL = biological target: T5, ComEA deltaL (Geobacillus stearothermophilus, UniProt A0A0K9HI54 60-124+143-207, internal_change); assay: fluorescence polarization; Kd within error of ComEA; Hill >1; value in Fig. 5c only; FP: 20 mM Tris-HCl pH 7.5, 200 mM KCl, 80 nM DNA, ~20 C (spin at 20 C; read temperature not stated); optical tweezers 23 +/- 1 C, buffer not given in material; details: protein: recombinant; label: 3'-fluorescein (36-FAM) on strand 1; blunt
T5 sequence: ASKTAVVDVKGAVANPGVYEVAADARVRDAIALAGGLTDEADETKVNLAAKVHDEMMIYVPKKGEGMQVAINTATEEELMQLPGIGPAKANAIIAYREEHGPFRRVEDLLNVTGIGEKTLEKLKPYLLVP

Molecule: 6 kbp dsDNA (optical tweezers)
- K half [1]: 380 nM
- K half [2]: 330 nM
- K half [3]: 290 nM
- K half [4]: 210 nM

- condensation force from an eWLC fit of the DNA released per cycle against the extension held in the rest phase, optical tweezers [5]: 0.07 pN
- condensation force produced and held for at least 1 s during the 10 s rest phase, optical tweezers, 20 nM-4 µM ComEA (value at 200 nM; buffer alone 0.03 pN) [6]: 0.11 pN
- fold condensation of 5.495 kbp dsDNA (bounding circle radius, negative stain electron microscopy), 200 nM-4 µM ComEA, peak value [7]: 3.5 fold
Molecule: ComEA from Geobacillus stearothermophilus, soluble truncation lacking the N-terminal sequence (amino acids 60-207) (domain or fragment)

B1: 30 bp DNA duplex (dsDNA)
DNA 1: GCACTGTGAATATCACTACAGCAACCTTGA
DNA 2: TCAAGGTTGCTGTAGTGATATTCACAGTGC
- Kd [8]: 0.66 ± 0.08 µM
- Kd (ComEA A108Y): 1.91 ± 0.52 µM
- binding result (ComEA deltaL): binds
